The experiment concerns the target His-tagged MUC1 cytoplasmic domain (His-MUC1-CD) (human). Briefly: SPR (BIAcore), His-MUC1-CD immobilized on the sensor chip, peptide injected at 10 µM, 1:1 binding model.

As a reminder, the Kd is the free concentration of one partner at which half of the binding sites on the other are occupied at equilibrium, for simple one-to-one binding. A lower Kd goes with a tighter complex.

As for MUC1/CQC peptide, the Kd amounted to 0.03 µM.
